Laboratory results: patent US12139520B2 (priority 2020, dated 2024)
Numbered stars: 1 amine (or outer) side, 2 acyl side, 3 side chain; on linkers, the order of the positions; unused ones are H or OH. Bridge positions count the residues as written; N and C are the ends. Square brackets hold non-standard residues; d marks the D form. Ends that are not written are not given here. * marks the point of attachment. C20 diacid = O=C(O)CCCCCCCCCCCCCCCCCCC(=O)*; γGlu = O=C(O)[C@H](CCC(=O)[*:2])N[*:1]; Hyp = O=C(O)[C@@H]1C[C@@H](O)CN1; Cit = NC(=O)NCCC[C@H](N)C(=O)O

T1: hAMY3R (human, UniProt P30988)
T1 sequence 1: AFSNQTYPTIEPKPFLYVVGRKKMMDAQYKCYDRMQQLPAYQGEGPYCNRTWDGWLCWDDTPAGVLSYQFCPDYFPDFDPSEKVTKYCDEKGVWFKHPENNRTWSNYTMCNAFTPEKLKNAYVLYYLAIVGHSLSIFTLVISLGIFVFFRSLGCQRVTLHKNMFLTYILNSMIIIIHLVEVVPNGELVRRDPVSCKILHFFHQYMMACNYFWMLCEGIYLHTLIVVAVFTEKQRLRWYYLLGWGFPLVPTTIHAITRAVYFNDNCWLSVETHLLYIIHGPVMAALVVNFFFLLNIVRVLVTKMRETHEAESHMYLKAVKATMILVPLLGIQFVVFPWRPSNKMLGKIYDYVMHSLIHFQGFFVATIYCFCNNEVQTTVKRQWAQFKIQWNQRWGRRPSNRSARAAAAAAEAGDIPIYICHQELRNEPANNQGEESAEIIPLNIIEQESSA
T1 sequence 2: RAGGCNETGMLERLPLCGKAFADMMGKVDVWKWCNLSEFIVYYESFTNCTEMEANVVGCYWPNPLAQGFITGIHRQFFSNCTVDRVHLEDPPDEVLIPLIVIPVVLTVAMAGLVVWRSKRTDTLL


Tests used:
hAMY3R = molecular target: T1, hAMY3R; experiment: cell-based or functional assay
hAM1R = hAM1R (human, UniProt Q16602); experiment: cell-based or functional assay

Row | Binder | hAMY3R EC50 (cAMP) (hAMY3R) [nM] | hAM1R EC50 (cAMP) (hAM1R) [nM]
1 | GCRTGTCTVQRLAHQIYQFTDKDKDNVAPRSNIGPNG[Hyp]-NH2 (disulfide 2-7 (inferred); ends not checked) [SEQ ID NO: 151] | 0.041 | 44.9
2 | GCRFGTCTVQRLAHQIYQFTDKDKDNVAPRSKVGPQG[Hyp]-NH2 (disulfide 2-7 (inferred); ends not checked) [SEQ ID NO: 152] | 0.041 | 213
3 | GCRFGTCTVQRLAHQIYQFTDKDKDNVAPRSKISPQGY [SEQ ID NO: 154] | 0.042 | 2980
4 | GCRFGTCTVQRLAHQIYQFTDKDKDNVAPRSKVSPQGY [SEQ ID NO: 174] | 0.071 | 133
5 | GCRFGTCTVQRLAHQIYQFTDKDKDNVAPRTKVSPQGY [SEQ ID NO: 155] | 0.045 | 116
6 | GCRTGTCTVQRLAHQIYQFTDKDKDNVAPRTNVSPQGY [SEQ ID NO: 176] | 0.076 | 2980
7 | GCRTGTCTVQRLAHQIYQFTDKDKDNVAPRTKVGPQGY [SEQ ID NO: 156] | 0.047 | 2980
8 | GCRTGTCTVQRLAHQIYQFTDKDKDNVAPRSNVSPNGY [SEQ ID NO: 172] | 0.066 | 2980
9 | GCRTGTCTVQRLAHQIYQFTDKDKDNVAPRTNIGPQGY [SEQ ID NO: 160] | 0.05 | 2980
10 | GCRFGTCTVQRLAHQIYQFTDKDKDNVAPRTKISPQGY [SEQ ID NO: 164] | 0.054 | 106
11 | GCRTGTCTVQRLAHQIYQFTDKDKDNVAPRSNVSPNG[Hyp]-NH2 (disulfide 2-7 (inferred); ends not checked) [SEQ ID NO: 166] | 0.056 | 2980
12 | GCRFGTCTVQRLAHQIYQFTDKDKDNVAPRSKVSPNG[Hyp]-NH2 (disulfide 2-7 (inferred); ends not checked) [SEQ ID NO: 175] | 0.074 | 2980
13 | KCNFATCTVQRLAHQIYQFTDKDKDNVAPPTEVGSNGP [SEQ ID NO: 18] | 0.008 | 817
14 | GCRTGTCTVQRLAHQIYQFTDKDKDNVAPRTNISPNG[Hyp]-NH2 (disulfide 2-7 (inferred); ends not checked) [SEQ ID NO: 170] | 0.064 | 2980
15 | {C20 diacid-γGlu}-KCNTATCTVIRLAHQIYQFTDKDKDNVAPPTNVGSNG[Hyp]-NH2 (disulfide 2-7 (inferred); ends not checked) [SEQ ID NO: 159] | 0.048 | > 5000
16 | GCRFGTCTVQRLAHQIYQFTDKDKDNVAPRSNISPQG[Hyp]-NH2 (disulfide 2-7 (inferred); ends not checked) [SEQ ID NO: 158] | 0.048 | 2980
17 | GCRWGTCTVQRLAHQIYQFTDKDKDNVAPRSKISPQT[Hyp]-NH2 (disulfide 2-7 (inferred); ends not checked) [SEQ ID NO: 150] | 0.04 | > 5000

Row | Binder | hAMY3R EC50 (cAMP) (hAMY3R) [nM] | hAM1R EC50 (cAMP) (hAM1R) [nM]
18 | GCRTGTCTVQRLAHQIYQFTDKDKDNVAPRSNVGPNGY [SEQ ID NO: 177] | 0.077 | 2980
19 | KCNTATCATQRLANFLVHSSNNFGAILPSTKVGPNGY [SEQ ID NO: 149] | 0.04 | > 5000
20 | KCNTATCATQRLANFLVHSSNNFGAILPSTKIGPNGY [SEQ ID NO: 162] | 0.051 | > 5000
21 | KCNTATCATQRLANFLVHSSNNFGAILSSTNVGSNTY (ligand, disulfide 2-7) [hAMY1-37] | 0.01 | > 5000
22 | GCRFGTCTVQRLAHQIYQFTDKDKDNVAPRSKVSPQG[Hyp]-NH2 (disulfide 2-7 (inferred); ends not checked) [SEQ ID NO: 167] | 0.056 | 2980
23 | GCRFGTCTVQRLAHQIYQFTDKDKDNVAPRSKISPQG[Hyp]-NH2 (disulfide 2-7 (inferred); ends not checked) [SEQ ID NO: 169] | 0.063 | 2980
24 | GCRTGTCTVQRLAHQIYQFTDKDKDNVAPRTKIGPQG[Hyp]-NH2 (disulfide 2-7 (inferred); ends not checked) [SEQ ID NO: 161] | 0.051 | 2980
25 | GCRFGTCTVQRLANFLYQFTDKDKDNVAPRTNVGPQGY [SEQ ID NO: 16] | 0.008 | 125
26 | GCRWGTCTVQRLAHQIYQFTDKFKDNVAPRSKISPQT[Hyp]-NH2 (disulfide 2-7 (inferred); ends not checked) [SEQ ID NO: 171] | 0.064 | > 5000
27 | {C20 diacid-γGlu}-KCNTATCTVQ[Cit]LAEQIAQFTDKDKDNVAPPTNVGSNG[Hyp]-NH2 (disulfide 2-7 (inferred); ends not checked) [SEQ ID NO: 153] | 0.041 | > 5000
28 | GCRTGTCTVQRLAHQIYQFTDKDKDNVAPRSKIGPNG[Hyp]-NH2 (disulfide 2-7 (inferred); ends not checked) [SEQ ID NO: 157] | 0.047 | 2980
29 | GCRFGTCTVQRLAHQIYQFTDKDKDNVAPRSKISPQT[Hyp]-NH2 (disulfide 2-7 (inferred); ends not checked) [SEQ ID NO: 168] | 0.062 | > 5000
30 | GCRMGTCTVQRLAHQIYQFTDKFKDNVAPRSKISPQT[Hyp]-NH2 (disulfide 2-7 (inferred); ends not checked) [SEQ ID NO: 173] | 0.069 | > 5000
31 | GCRTGTCTVQRLAHQIYQFTDKDKDNVAPRTNVSPNG[Hyp]-NH2 (disulfide 2-7 (inferred); ends not checked) [SEQ ID NO: 163] | 0.053 | 2980
32 | KCNFATCTVQRLAHQIYQFTDKDKDNVAPRTEVGSNG[Hyp]-NH2 (disulfide 2-7 (inferred); ends not checked) [SEQ ID NO: 17] | 0.008 | 295
33 | GCRTGTCTVQRLAHQIYQFTDKDKDNVAPRSNIGPQG[Hyp]-NH2 (disulfide 2-7 (inferred); ends not checked) [SEQ ID NO: 165] | 0.054 | 2980
